Test results from the nanobody polyreactivity screen of Harvey et al. (2022).

Assay: yeast display, Sf9 membrane polyspecificity reagent, FACS + sequencing; frameworks hold sequencing errors
Outline: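 Nanobodies from a synthetic yeast display library (Saccharomyces cerevisiae BJ5465), induced 36–48 hours with galactose, were stained 1 hour at 4 °C with 10% biotinylated, detergent-solubilized Sf9 membrane reagent, enriched on streptavidin microbeads, then FACS-sorted. Anti-HA (expression) and streptavidin (reagent binding) fluorescence set low and high (top ~1%) gates. Polyreactivity labels come from the gate of origin. Genes were colony-PCR amplified, MiSeq 2 × 250 sequenced and filtered by CDR length.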

Sequence	polyreactivity (PSR sort gate)
QVQLVESGGGLVQAGGTLRLSCAASGSIFPDNTMGWYRQAPGKERELVAAIDGRGVTTYYADSVKGRFTISRDNAKNTVYLHMNSLKPEDTAVYYCAAQPWLRYYYWGQGTQVTVSS	low polyreactivity
QVQLVESGGGLVQAGGSLRLSCAASGSTFLYYAMGWYIQAPGKERELVAAISRSGGNTYYADSVKGRFTISRDNAKNTVYLQMNSLKPEDTAVDYCAKSPPGRGIRRLYYYWGQGTQVTVSS	high polyreactivity
QVKLVESGGGLVQAGGSLRLSCAASGSTVVFNTMGWYRQAPGKERELVAAISTGDSTKYADSVKGRFTISRDNAKITVYLQMNSLKPVDTAVDYCAADTQDRTYYGWRQVGGYDYWGQGTQVTVSS	low polyreactivity
QVQLVESGGGLVQAGGSLRLSCAASGLIFYIYMGWYRQAPGKESELVAVISSSGNSTYYADSVKGRFTISRYNAKNTVYLQLNSLKPEDTAVYYCNASAYYPPSSSRYYYWGQGTQVTVSS	low polyreactivity
QVQLVESGRGLVQAGGSLRLSCAASGRTFNWYAKGWYRQAPGKERELVAAISSGGSTYYADSVKGRFTISRDNAKNTVYLQMNSLKPEDTAVYYCAAVTPSGAHRSAYHPISDYWGQGTQVTVSS	low polyreactivity
QVQLVESGGGLVQAGGSLRVSCAASGRTFWTNAMGWYRQAPGKEREILAAISWRGASTFYADSVKGRFTISRDNAKNTVYLQMNSLKPEDTAVYYCAAQSRTRSFYGKYDSWGQGTQVTVSS	low polyreactivity
QVHLVESGGGLVQAGGSLRLSCAASGFIFTYYTMGWYRQAPGKERELVAAISRSGARTYYADSVKGRFTISRDNAKNTVYLQMNSLKPEDTAVYYCNTDISYGYYPVGYDYWGQGTQVTVSS	high polyreactivity
QVQLVESGGGLVQAGGSLRLSCAASGSTFSTNAMGWYRQAPGKERELVAAISRRGGNTYYADSVKGRFTISRDNAKNTVYLQMNSLKPEDTAGYYCAAKYYRFGDPDRYDYWGQGTQVTVSS	high polyreactivity
QVQLVESGGGLVQAGGSLRLSCAASGSTFSYYTMGWYRQATGKERELVAAISGSGGSTYYADSVKGRFTISRDNAKNTVYLQMKSLKPEDTAVYYCAALRAGSKCFDFWGQGTQVTVSS	high polyreactivity
QVQLVESGGGFGQAGGSLRLSCAASGFTCGYYAMGWFRQAPGKERELVASISSRGGSTNYADSVKGRFTISRDHAKNTVYLQMNTMKPEDTAVYYCAAEYYRQRYEYDYWRQGTQVTVSS	high polyreactivity
QVQLVESGGGLVQAGGSLRLSCAASGGIFPVYAMGWSRQAPGKERELVATITSDGDTNYADSVKGRFTISRDNAKNTVYLQMNSLKPEDTAVYYCNKDLDYIIVQPHSPELEYWGQGTQVTVSS	low polyreactivity
QVQLVESGGGLVQAGGSLRLSCAASGFTFGTYTMGWYRQAPGKERELVAAIRSSGGRTYYADSVKGRFTISRDNAKNTVYLQMNSLKPEDTAVYYCAAVLFGYPRTFGTWYDRYYYWGQGTQVTVSS	high polyreactivity
QVQLVESGGGLVQAGGSLRLSCAASGSTFGRNAMGWYRQAPGKERELVAAITASGGTTYYADSVKGRFTISRDNAMNTVYLQMNSLKPEDTAVYYCARAGHFSFKYDYWGQGTQVTVSS	low polyreactivity
QVQLVESGGGLVQAGGSLRLSCAASGFTFARYAMGWYRQAPGKERELVAAITYSGGRTYYAVSVKGRFTISRDNAKNTVYLQMNSLKPEDTAVYYCAVKHSSPGRYYYWGQGTQVTVSS	high polyreactivity
QVQLVESGGGLVQAGGSLRLSCAASGLTFYYYVMGWYRQAPGKERELVAAISYSGGRTYYADSVKGRFTISRDNAKNTVYFQMNSLKPEDTEVYYCAAQSRYGGKFYYWGQGTQVTVSS	high polyreactivity
QVQLVESGGGLVQAGGSLRLSCAASGLIFVDNAMGLYRQAPGKERELVAAIDSGGSTNYADSVKGRFTISRDNAKTTVYLQMNSLNPEDTAVYYCAADWIYAPWYYQESVEYYYWGQGTQVTVSS	low polyreactivity
QVQLQESGGGLVQACGSLRLSCAASGYIFSHQYMGWYRQAPGKERELVASISPGATTNYADSVKGRFTISRDNAKNTVYLQMNSLKPEDTAVYYYAVYQILDRRLSYWGQGTQVTVSC	high polyreactivity
QVQLVESGGGLVQAGRSLRLSCAASGRIFFGYAMGWYRQAPGKERELVAVISSGCRTYYADSVKGRFTISRDNAKNTVYLQMNSLKAEDTAVYYCAAIIPPTKQRGYYYVGRSEYDYWGQGSQVTVSS	low polyreactivity
QVQLQESGGGLVQAGGRLSLSRAASGFISGTYCMGCYRQTPGQDREFVAGIGNGAITYYADSAKGCFTISRDNAKNAVYLQMNSLKQEETAVYYCAADGQWYYAPFRGGDYENDYWGQGTQVTVSS	low polyreactivity
QVHLVESGGGLVQAGGSLRLSCAASGSIFYKYVMGWYRQAPGKERELVAAISRGGGSTYYADSVKGRFTISRDNAKNTVYLQMNSLKPEDTAVYYCNAVGRPRYGHGFDHWGQGTQVTVSS	high polyreactivity
QVQLVESGGGLVQAGGSLRLSCAASGITFDYYAMGWYRQSPGKERELVAAISYSAGSTYYADSVKGRFTISRDNAKNTVYLQMNSLKPEDTAVYYCAAETFTISSDYYYWGQGTQVTVSS	low polyreactivity
QVQLVESGGGLVQAGGSLRLSCAASGYTFGYNARGWYRQAPGKERELVANITWRGGSTNYADSVKGRFTISRDNAKNTVYLQMNSLKPEDTAVYYCAADRPWYYGRYYYWGQGTQVTVSS	high polyreactivity

Sequence	polyreactivity (PSR sort gate)
QVQLVESGGGLVQAGGSLRLSCAASGSIFGFYAMGWYRQAPGKERELVAAITFSGGSTDYADSVKGRFTISRDNAKNTVYLQMNSLKPEDTAVYYCAARGYAIYSYWYYEPYDYWGQGTQVTVSS	high polyreactivity
QVQLVESGGGLVQAGGSLRLSCAASGFTYDSYAMRWYRQAPGKERELVAAITRRGGSTYYADSVKGRFTISRDNAKNTVYLQMNSLKPEDTAVYYCATLRLRSLGQRNYWGQGTQVTVSS	high polyreactivity
QVQLVESGRGLVQEGGSLRLSCAASGSTFEPYAMGWYRQAPGKERELVAAITLTAGSTYYADSVKGRFTISRDNAKNTVYLQRNSLKPEDTAVYYCAAEFWLVEDDYWGQGTQVTVSS	low polyreactivity
QVQLVESGGGLVQAGGSLRLSCAASGLILQYYVMGWYIQAPGKERELVAAITRSGGGTYYADSVKGRFTISRDNAKNTVYLQMNSLKPEDSAVYYCAAQRQYGKFDYWGQGTQVTVSS	high polyreactivity
QVQLVESGGGLVQAGGSLRLSCAASGSTISRYTMGWYPQAPGKERELVAAIRRSGSSTYYADSVKGRYTISRDNAKYTVYLQMNSLKREDTAVYYCAVGRYRYGYWGQGTQVTVSS	high polyreactivity
QVQLVESGGGLVQAGGSLRLSCAASGSTFRYYTMGWYRQAPGKERELVASISRSGSTSYADSVKGRFTISRDNAKNTVYLQMNSLKPEDSAVYYCAGESYFGAYAGYDYWGQGTQVTVSS	low polyreactivity
QVQLVESGGGLVQAGGSLRLSCAASGRTFDPNAMGWYRPAPGKERELVAAISSSAGSTYYADSVKGRFTISRDNAKNTVYLQMNSLNPEDPALYFCAAGSGTFVTRYRYGYWGQGTQVTVSS	high polyreactivity
QVQLVESGGGLVQAGGSLLLSCAASGNTFVNNAMGWYRQAPGKERELVAAISRRGGTTYYADSVKGRFTISRDNAKNTVYLKMKSLKPEDTAVYYCAKYGYAFDSWGQGTQVTVSS	high polyreactivity
QVQLVESGGGLVQAGGSLRLSCAASGIILDHYAMGWYRQAPGKERELVAAISSGTRTNYADSVKGRFSISRDNAKHTVSLQMNSLKPEDTAVYNCAATIYRRYRSKYSITSYWGQGTQVTVSS	high polyreactivity
QVQLVESGGGLVQAGGSLRLSCAASGRILYRYAMGWYRQAPGKERELVAAITWRGGTTYYADSVKGRFTISRDNAKNTVYLQMNSLKPEYTAVYYCNADWWRTLESDFWGQGTQVTVSS	low polyreactivity
QVQLVESGGGLVQAGGSLRLSCAASGRIFYFNAMGWYRQAPGKERELVAAISGSGGDTYYADSVKGRFTISRDNAKNTVYLQMNSLKPEDTAVYYCAAEVYTWGQGTQVTVSS	low polyreactivity
QVQLVESGGGLVQAGGSLRLSCAASGRTFVRYAMGWYRQAPGKERELVAAISWSGGSTYYADSVKGRFTISRDNAKNTVYLQKNSLKPEDTAVYYCAAVDETPSSHEEDYWGQGTQVTVSS	high polyreactivity
QVQLVESGGGLVQAGGSLRSSCAASGSIFQYYALGWYRQAPGNERELVAAISSGGRTNYADSVKGRFTISRDNAKNTVYLQMNSLKPEDTAVYYCAAARYYYQVYRWEYDYWGQGTQVTVSS	high polyreactivity
QVQLVESGGGLVQAGGSLRLSCAASGRIVRNAMGWYRPAPGKEWELVAAITRSGGSTYYADSVKGRFTISRDNAKKTVYLQMNSLKPEDTAVYYCAARHYRSRDGYSGQGTQVTVSS	high polyreactivity
QVQLVESGGCLVQAGGSLRLSCAASGNIIVGNDMGWYRQAPGKERELGAAISSGDTTSYADSVKGRFTISRDNAKNTVFLQMISLKPEDTAVYYCAAGFTYPYDYWGQGTQVTVSS	low polyreactivity
QVQLVESGGGLVQAGGSLRLSCAASGSTFYYYARGWYRQAPGKERELVAAIDRDDRTNYADSVKGRFTISRDNAKNTVYLQMNSLKAEDTAVYYCAAVEIYEYDYWGQGTQVTVSS	low polyreactivity
QVQLVESGGGLVQAGGSLRLSCAASGSTFRYYAMGWYRQAPGKERELVAAISGSGGRTYYADSVKGRFTISRDNAKNTVYLQMYSLKPEDTAVYYCAASRYQFYWGQGTQVTVSS	high polyreactivity
QVQLVESGGGLVQAGGSLRLSCAASGSIFYRYAMGWYRQAPGKERELVAAISSTGSTYYADSVKGRFTISRDNAKNTVYLQMNSLKPEDTAVYYCAARQGYRSYRRYDYWGQGTQVTVSS	high polyreactivity
QVQLVESGGGLVQAGGSLRLSCAASGFTFRWYTMGWYRQAPGKERELGAAINRGGSTYYADSVKGRFTISRDNAQNTVYLQMNSLKPEDTAVYYCAKSVSASWGRDYWGQGTQVTVSS	high polyreactivity
QVQLVESGGGLVQAGGSLRLSCAASGIIFLANAMGWYRQAPGKERELVAAISLDGGRTYYADSVKGRFTISRDNAKNTVFLQMNSLKPEDTAVYYCAADYGYVILYEYWGQGTQVTVSS	low polyreactivity
QVQLVESGGRLVQAGGSLRLSCAASGIIFYVYAMGWYRQAPGKERELVAAISSSGGSTYYADSVKGRFTISRDNAKNTVYLQMNSLKPEDSAVYYCAAVSSGYDDWGQGTQVTVTS	high polyreactivity
